For assay [1], the target named is T1, SARS-CoV-2 S protein of the wild-type, on pseudotyped lentiviral particles (SARS-CoV-2). Kind of assay: cell-based or functional assay.
The next assay concerns the target SARS-CoV RBD (SARS-CoV, UniProt P59594 306-527). Kind of assay: ELISA, 0.1 ug antigen coated.
The target of assay [2] is T1, SARS-CoV-2 S protein of the wild-type, …. Kind of assay: cell-based or functional assay. This is another data set of the same source.
Assay [3] deals with SARS-CoV-2 RBD protein (Fc-tagged) (SARS-CoV-2, UniProt P0DTC2 319-541).
The target in assay [4] is T2, SARS-CoV-2 RBD (wild-type) (SARS-CoV-2, UniProt P0DTC2 319-541).
In a further assay the target is SARS-CoV-2 S1 domain (SARS-CoV-2, UniProt P0DTC2 14-685). Kind of assay: ELISA: IgG titrated on plate-bound S1, absorbance at 450 nm.
Assay [5] addresses T2, SARS-CoV-2 RBD (wild-type). Kind of assay: ELISA, antigen coated, antibody titrated, A450. On the technique in general: ELISA stands for enzyme-linked immunosorbent assay.
The target of assay [6] is T2, SARS-CoV-2 RBD (wild-type). Kind of assay: SPR (FIG. 24).
The target of assay [7] is T2, SARS-CoV-2 RBD (wild-type). Description: SPR, RBD immobilised. (In general: In SPR one partner is held on a chip, and binding of the other changes the refractive index at the surface.)
In assay [8] the target is T2, SARS-CoV-2 RBD (wild-type). Kind of assay: competition ELISA: RBD-His with antibody, binding to coated hACE2-Fc.
Assay [9] deals with T2, SARS-CoV-2 RBD (wild-type). Kind of assay: SPR, RBD immobilised, 1:1 model.
In assay [10] the target is T2, SARS-CoV-2 RBD (wild-type). This is another data set of the same source.

Read-outs that look alike come from different tables or passages of the source.

Broadly, the IC50 is the concentration needed to halve the response being measured. Usually Kd stands for the constant that tells how readily two partners part at equilibrium. The low end stands for a tighter complex, the high end for a looser complex. What is called kon is a measure of how fast the partners come together. A low value points to slower complex formation. One may read the EC50 (read off the curve) as the concentration giving half of the maximal effect. A higher EC50 (read off the curve) goes with weaker potency.

B1: RD3 (antibody, V domains shown)
VH: EVQLLESGGGLVQPGGSLRLSCAASGFTFSDYAMSWVRQAPGKGLEWVSWIYSGSGNKYYADSVKGRFTISRDNSKNTLYLQMNSLRAEDTAVYYCARFPIARTSNSQSSYDGMDVWGQGTLVTVSS
VL: QSVLTQPPSASGTPGQRVTISCSGSSSNIGSNAVSWYQQLPGTAPKLLIYADNKRPSGVPDRFSGSKSGTSASLAISGLRSEDEADYYCGAWDSSLNAYVFGGGTKLTVL
notes: also called K102.1
As to B1, the “IC50 (nM), pseudovirus neutralization, luciferase in 293T/hACE2 cells” value in assay [1] was 1.94 nM. Further, in the assay with SARS-CoV RBD, the binding result is “binds”. Further, the “IC50 (nM), pseudotyped virus infection” value in [2] was 1.94 nM.

B2: RD10 (antibody, V domains shown)
VH: EVQLLESGGGLVQPGGSLRLSCAASGFTFSDYAMSWVRQAPGKGLEWVSAIYPGGGSTYYADSVKGRFTISRDNSKNTLYLQMNSLRAEDTAVYYCARNLFGFDYWGQGTLVTVSS
VL: QSVLTQPPSASGTPGQRVTISCTGSSSNIGSNAVYWYQQLPGTAPKLLIYDDSNRPSGVPDRFSGSKSGTSASLAISGLRSEDEADYYCGSWDDSLSAYVFGGGTKLTVL
For B2, it took 1.97 nM to reach half-maximal inhibition in assay [3] (IC50). In addition, the Kd is 0.55 nM in assay [4], 0.317 nM in the assay with SARS-CoV-2 S1 domain and roughly 0.1 nM in assay [5].

B3: RG6 (antibody, V domains shown)
VH: EVQLLESGGGLVQPGGSLRLSCAASGFTFSDYSMSWVRQAPGKGLEWVSGIYHSDGSKYYADSVKGRFTISRDNSKNTLYLQMNSLRAEDTAVYYCARFDPVFDYWGQGTLVTVSS
VL: QSVLTQPPSASGTPGQRVTISCTGSSSNIGSNAVNWYQQLPGTAPKLLIYADSNRPSGVPDRFSGSKSGTSASLAISGLRSEDEADYYCGAWDASLSAYVFGGGTKLTVL
Regarding B3, the Kd is 0.481 nM in [4] and 0.22 nM with SARS-CoV-2 S1 domain.

B4: RB6 (antibody, V domains shown)
VH: EVQLLESGGGLVQPGGSLRLSCAASGFTFSSYDMSWVRQAPGKGLEWVSGISYSGGSTYYADSVKGRFTISRDNSKNTLYLQMNSLRAEDTAVYYCARDVNFVPLVTFDYWGQGTLVTVSS
VL: QSVLTQPPSASGTPGQRVTLSCTGSSSNIGSNSVTWYQQLPGTAPKLLIYDDNQRPSGVPDRFSGSKSGTSASLAISGLRSEDEADYYCGTWDYSLSAYVFGGGTKLTVL
notes: also called K102.2
For B4, the Kd was 2.46 nM in [6]; 2.2 nM in assay [7]; 2.2 nM in assay [9]; 0.716 nM in assay [4]; 3.2 nM with SARS-CoV-2 S1 domain. Moreover, the “fold affinity against K102.3” value in assay [6] is roughly 5 fold. For the same molecule, the kon in assay [7] and in assay [9] was 197000 M⁻¹ s⁻¹ throughout. Further, the figures for the 50% inhibitory concentration (IC50) in assay [3] and in assay [8] were 1.95 nM and 4.94 nM, respectively. Also, the binding result with SARS-CoV RBD was “binds”.

B5: HA-tagged K102.2 (K102.2-HA) (antibody, V domains shown)
VH: EVQLLESGGGLVQPGGSLRLSCAASGFTFSSYDMSWVRQAPGKGLEWVSGISYSGGSTYYADSVKGRFTISRDNSKNTLYLQMNSLRAEDTAVYYCARDVNFVPLVTFDYWGQGTLVTVSS
VL: QSVLTQPPSASGTPGQRVTLSCTGSSSNIGSNSVTWYQQLPGTAPKLLIYDDNQRPSGVPDRFSGSKSGTSASLAISGLRSEDEADYYCGTWDYSLSAYVFGGGTKLTVL
Turning to B5, the “EC50 (read off the curve)” value in assay [10] is roughly 0.05 µg/mL.

B6: RB4 (antibody, V domains shown)
VH: EVQLLESGGGLVQPGGSLRLSCAASGFTFSDYSMSWVRQAPGKGLEWVSGIYHSDGSKYYADSVKGRFTISRDNSKNTLYLQMNSLRAEDTAVYYCARFDPVFDYWGQGTLVTVSS
VL: QSVLTQPPSASGTPGQRVTISCSGSSSNIGSNAVSWYQQLPGTAPKLLIYDNNHRPSGVPDRFSGSKSGTSASLAISGLRSEDEADYYCGSWDDSLNAYVFGGGTKLTVL
In turn, B6 displayed an IC50 in assay [3] of 0.841 nM. Also, the results for the dissociation constant (Kd) (in assay [4]; with SARS-CoV-2 S1 domain) were 0.186 nM and 0.169 nM, respectively.
